In the supplement of paper PMC12042874 one finds amyloid nucleation score data, which are given here for 131 substances.

The nature of the series: amyloid nucleation score (Sup35N fusion, yeast selection) (log enrichment); library NNK3; higher = more nucleation; inactive = no reads after selection. The method, boiled down: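 Sup35N fusions to peptides of 20 random codons were expressed in psi-negative yeast, induced 24 hours with 100 μM copper sulfate, and grown 7 days at 30°C on medium lacking adenine and uracil. Input and output plasmid inserts were sequenced by Illumina. The nucleation score is the DiMSum log enrichment of output over input reads, centred on the mode score of non-aggregating sequences. Sequences with under 100 input reads were excluded.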

± gives the uncertainty stated by the source.

With MILKNWNVSISRGSRFNSYV, the amyloid nucleation score result is “inactive”.

Take TLLFSIYCIFLNPSVQRRFE: the amyloid nucleation score was -0.028 ± 0.43. Take EGRRIAGNARDRDHDLQVGR: the amyloid nucleation score entry is “inactive”.

On to CSNGFLFTVRVDTGFPTRI, for which the amyloid nucleation score entry was “inactive”. Next, YFCSCFRFSLNN: 2.8 ± 0.062; WYIFFMEVMAGRY: “inactive”. Next, VTSVHTALFSLQNDWNNKGD: “inactive”. Next, IATIFGVHFRQNDDWIVALY: “inactive”; SSSVCRSLSPLILSHKRYYS: “inactive”; RIRGMFGCPNNR: “inactive”.

For LSWFIYWDKIRGWSKMTIGQ, the amyloid nucleation score result was “inactive”.

Consider GKGSNASIGVITVDTVYIVA, for which the amyloid nucleation score amounted to 1.42 ± 0.09. As for PPVLVNGLTLKWEGVYSVNY, the figure is 0.802 ± 0.21; as for LYYMKVIGTFRISEAILLYL, “inactive”. Next, FDRKYW: “inactive”.

Regarding WCCLETRLYL, the amyloid nucleation score was 1.5 ± 0.1. As for LLCLVAKRYGMGRLF, the entry is “inactive”; as for KCKANPEDNVRFLRLVYGAS, “inactive”; as for VGILLFFYLTNVEQAVTFVR, “inactive”. As for WFLSLLSQLGYGQVFVDFIP, the entry is “inactive”; as for SRIKD, “inactive”; as for PRGWWPMGFSCGYFVFALTP, “inactive”. As for NWGSYSMDMRSCSGINRRP, the entry is “inactive”; as for FRQYKSPGDLPRMDAVACGK, -0.832 ± 2.5. Regarding VSWVYRSGRFYDGVGVGYRT, the amyloid nucleation score result was “inactive”.

On to RADSGGKCLLAELDGLSPYW, for which the amyloid nucleation score entry was “inactive”.

For FTLPKHFTRIL, the amyloid nucleation score entry is “inactive”. As for GSYTLYFVIWLFHIRFYGTR, the entry is “inactive”; as for RECVMETWSQVGRWFTCVRV, “inactive”. Next, HNFYKGFDYHLECMGADTGE: “inactive”; SNCFRILYTCAVAQLPPCMR: “inactive”. Next, AVQQKSECFLFAFLILRDWV: “inactive”; SNAHMCVRRTAWKNI: “inactive”; NRSPLCLKC: “inactive”. On to VSSCAC, for which the amyloid nucleation score entry is “inactive”. Next, LPICVVMDKRFCTIVISSST: “inactive”; NGTATADRSNKSVPFPSI: “inactive”.

Turning to FLILSNEIMPLFTWANKRLE, the amyloid nucleation score result is “inactive”.

Regarding LLFEMWTWSTVSRRAGDVLS, the amyloid nucleation score entry is “inactive”. As for CGSVNVSTRYKD, the entry is “inactive”; as for AYSVYVFALYRLNFYVLLRN, “inactive”; as for RCDNKF, 1.2 ± 0.17. As for AVWRYSVSYTLYHSSGLLES, the entry is “inactive”; as for DYVNRCI, “inactive”; as for RNKSVVPHVLRELCFMVWLV, “inactive”.

Regarding SWLFHRYFVGSYCVLMDMRV, the amyloid nucleation score entry is “inactive”. Next, NYRERS: “inactive”. Next, DNMSKTSFKLTNCRQCIM: “inactive”; SDQSCGDIMMELFWQM: “inactive”. As for RCTVDVFMHCSKLSNAELSL, the figure is 0.833 ± 0.12; as for IRDYVFRLYYRLNCMIRKRG, “inactive”; as for IRLCLLSIMWLNGWLSAIHA, “inactive”. RCSRWNWCVVAG: the amyloid nucleation score entry was “inactive”. Next, GMRFRCKRYVCVLQ: -0.078 ± 0.98; LDNTLDN: “inactive”; VYHWFWMQRLNGWFENQQRK: “inactive”.

As for RYDLIVKVVVSGESVSTWCC, the amyloid nucleation score entry is “inactive”.

In the case of FKLRTDIAMDINVGQDLSGL, the amyloid nucleation score entry is “inactive”. As for MRCSDGPPKWNHD, the figure is -0.277 ± 0.88; as for CIGIYFLIRGTYILIVFSL, -0.607 ± 1; as for QDLSYRVGLFWDRSIVLNWY, “inactive”. MFRWLAQWALLTTTSRPASQ: the amyloid nucleation score entry was “inactive”. NISLELDVFCTTNNMG: the amyloid nucleation score came to 1.74 ± 0.089. As for HGMPMVAFITFVVNIRGLCD, the amyloid nucleation score stood at 0.079 ± 0.81. As for TFTLSCFTCNGFVSDVVHCD, the figure is 3.21 ± 0.054; as for EHVKRVRIWNSVNLVIEYMA, 0.635 ± 0.19; as for IVQYELTACDESAVKWIGMP, “inactive”. As for VTGNDQ, the entry is “inactive”; as for GLSVVYSNRYNTWVRDLKDW, 0.376 ± 0.22. As for KSDPPGTVLYYTLAQPLYLL, the entry is “inactive”. On to NFWEYQSECWRVTQW, for which the amyloid nucleation score entry is “inactive”. Next, MTILYYDS: “inactive”; NFFTL: “inactive”; CGTFNCYNGAL: 0.699 ± 0.19.

As to FTWIFRFMPIWHACDKRVFE, the amyloid nucleation score is 1.71 ± 0.088. As for GCKRSSGKRFLCRGAPCDEW, the entry is “inactive”; as for KKCHGMMCNTITRTINILC, “inactive”. As for EATPSSIQAQ, the entry is “inactive”.

YIQITQMAALARLYIYMRMC: the amyloid nucleation score result was “inactive”. Next, CLSTPMVMLICFM: 0.904 ± 0.29; IIADKVQSLISFDNVGMCQW: “inactive”.

With NDKVYRVGRTNLYNV, the amyloid nucleation score result was “inactive”. Next, INNLYDVQRGIADFWKSWLV: “inactive”; KVSNTRLVRTINMSCGISYP: “inactive”. Next, LILFPRKRHTGSM: “inactive”. Next, NTRLSRLKIVFPCL: “inactive”.

In the case of KGMFLVMSRLCPFISWSRSQ, the amyloid nucleation score result was “inactive”. Next, MMTIRSSMLAKGLVNALATV: “inactive”; NYDFWVQTISECCELEFVM: “inactive”; QCRQVIENNRVLFVAIKWEN: 0.57 ± 0.58. As for TGDSLLLAHLLWSMDIVNMN, the entry is “inactive”; as for KSIIYTILLVWFKYGVHSPL, “inactive”. As for INCLDFYTTVYNTRSWIFVH, the entry is “inactive”; as for NMVNAIFSAVGLQGFRLFPR, “inactive”. Take FYVPVYGERV: the amyloid nucleation score entry is “inactive”. As for LNLSYGM, the entry is “inactive”; as for NKSRTYCSARRLHRGKFRLI, “inactive”; as for LFMLGQLLTWDFHALSSGYV, 0.523 ± 0.19. Next, YSTNVSYY: “inactive”.

For FHSSS, the amyloid nucleation score entry is “inactive”. In the case of IFYVWQLLYYGEQRGGS, the amyloid nucleation score came out at 1.63 ± 0.088.

With FFVKYVLEKCAWKY, the amyloid nucleation score entry was “inactive”.

In the case of EVRRRDLYLWKASETLLRLL, the amyloid nucleation score entry was “inactive”.

As for RKVSSLVITRMAWMLSGNWL, the amyloid nucleation score came out at 2.57 ± 0.051. As for DVFDYVSTVVTNYW, the entry is “inactive”. Next, SYSTARDSVGLSSWSSLIKW: “inactive”; EQTLGYNLIRAWLSKCCWMT: “inactive”; LKGTCFLIPYLVTSGSSLVS: “inactive”. As for FIGDGSRDRRDGLLDLY, the entry is “inactive”. Consider HINISFISYYRRRMYYNVCG, for which the amyloid nucleation score was found to be 1.62 ± 0.092. As for TFFEVGRQYELAVGKSRSSM, the entry is “inactive”.

With GRPTSRLMSNWTFPSATVSW, the amyloid nucleation score result was “inactive”. As for SARIPSLWNHWRIW, the entry is “inactive”; as for YETVMFSS, “inactive”. As for MQPGYQCDNVVRSCHDAHGY, the entry is “inactive”; as for TDTSAGFM, “inactive”; as for LSRINSCRLMVQVQLSRT, “inactive”. As for YSYRVRTSFVENRKCA, the entry is “inactive”; as for SFECDRYYFSWDGFMSGLT, “inactive”; as for SNCSSWSSPV, “inactive”. As for YNVFEALLNRWH, the amyloid nucleation score result is “inactive”. Next, SRNPEAEHRIIMRAQSTGYF: “inactive”; VGNLCVLKGTTIMFGIMGST: 1.18 ± 0.14. Substance SYSKVCRSKRQI gave an amyloid nucleation score of 0.185 ± 0.71. Next, VKMTGDVVTLHLRDLINCWA: “inactive”.

For the substance LHITVEIWTLWK, the amyloid nucleation score result was “inactive”. On to IDLKY, for which the amyloid nucleation score entry was “inactive”. Next, NMSPGEP: “inactive”; GIEADYSYMSGEGKAVCSSM: “inactive”. With PHRGACMARTLSEVFCRAGS, the amyloid nucleation score entry was “inactive”.

As to KRDIVFLCGDWVDSFTCSGG, the amyloid nucleation score stood at 1.79 ± 0.075.
